Reference: patent publication US20200291135A1 (INSPIRNA, published 2020)
Positions count from the first letter of the chain named. Each block holds one binder with its values, some of them ahead of it.

Experiments:
[1] = biological target: T1, human MERTK expressed on cells (SKMEL5 melanoma cells; in vitro differentiated M2 macrophages) (human, UniProt Q12866 21-999); experiment: cell-based assay similar to that for z10 (flow cytometry on cells)
T1 construct: Endogenous MERTK of human cells; also called surface MERTK
T1 sequence: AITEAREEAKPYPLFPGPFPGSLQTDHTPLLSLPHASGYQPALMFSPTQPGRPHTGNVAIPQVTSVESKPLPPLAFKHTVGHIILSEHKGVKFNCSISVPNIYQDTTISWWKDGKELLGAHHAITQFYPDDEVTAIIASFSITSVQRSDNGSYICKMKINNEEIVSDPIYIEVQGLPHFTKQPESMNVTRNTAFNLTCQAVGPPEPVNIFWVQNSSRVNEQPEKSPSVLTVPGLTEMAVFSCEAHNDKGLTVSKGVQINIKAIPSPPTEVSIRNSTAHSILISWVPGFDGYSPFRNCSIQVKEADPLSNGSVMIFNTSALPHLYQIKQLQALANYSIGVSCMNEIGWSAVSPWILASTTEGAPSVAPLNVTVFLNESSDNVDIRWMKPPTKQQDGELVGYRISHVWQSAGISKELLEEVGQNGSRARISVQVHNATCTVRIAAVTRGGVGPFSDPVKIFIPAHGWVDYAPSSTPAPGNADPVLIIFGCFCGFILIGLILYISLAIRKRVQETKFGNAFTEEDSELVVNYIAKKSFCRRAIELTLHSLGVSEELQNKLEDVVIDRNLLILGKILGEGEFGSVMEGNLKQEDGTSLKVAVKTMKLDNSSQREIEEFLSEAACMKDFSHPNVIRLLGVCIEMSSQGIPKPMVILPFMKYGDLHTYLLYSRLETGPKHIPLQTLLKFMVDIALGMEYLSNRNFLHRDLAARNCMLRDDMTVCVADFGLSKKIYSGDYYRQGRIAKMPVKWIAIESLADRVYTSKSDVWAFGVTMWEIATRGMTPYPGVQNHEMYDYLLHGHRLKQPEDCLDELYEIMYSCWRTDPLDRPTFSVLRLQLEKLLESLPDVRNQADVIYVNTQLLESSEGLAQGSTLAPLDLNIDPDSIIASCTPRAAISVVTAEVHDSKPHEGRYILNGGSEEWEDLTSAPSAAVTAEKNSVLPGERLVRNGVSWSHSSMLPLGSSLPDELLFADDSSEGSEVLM

[2] = biological target: T2, rhMer/Fc Chimera (recombinant human MERTK extracellular domain conjugated to an IgG Fc domain) (human, UniProt Q12866 21-505); experiment: SPR, avidity format: rhMer/Fc Chimera immobilised on CM5 chip, antibody as analyte, 1:1 fit
T2 construct: extracellular domain; also called hMER recombinant protein; Mer-Fc conjugate; not shown: IgG Fc domain
T2 sequence (looked up): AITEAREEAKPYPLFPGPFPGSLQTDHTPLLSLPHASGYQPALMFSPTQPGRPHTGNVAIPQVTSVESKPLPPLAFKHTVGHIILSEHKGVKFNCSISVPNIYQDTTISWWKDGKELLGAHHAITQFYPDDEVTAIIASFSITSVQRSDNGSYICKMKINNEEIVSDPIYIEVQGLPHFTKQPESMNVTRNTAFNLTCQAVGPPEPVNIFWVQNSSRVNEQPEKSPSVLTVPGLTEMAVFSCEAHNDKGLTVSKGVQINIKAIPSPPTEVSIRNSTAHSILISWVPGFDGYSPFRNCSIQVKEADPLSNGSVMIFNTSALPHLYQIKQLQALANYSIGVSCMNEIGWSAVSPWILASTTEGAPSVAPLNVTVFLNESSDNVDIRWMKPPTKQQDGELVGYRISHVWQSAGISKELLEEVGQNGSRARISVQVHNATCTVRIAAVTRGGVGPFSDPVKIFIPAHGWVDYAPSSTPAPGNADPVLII
Description: With respect to avidity and affinity measurements using SPR, the protocols below were used.
The activator was prepared with a mixture of 400 mM EDC and 100 mM NHS immediately prior to injection. The CM5 sensor chip was activated for 420 s with the mixture. […] The chip was deactivated by 1 M ethanolamine-HCl. […] 8 concentrations (0.3125, 0.625, 1.25, 2.5, 5, 10, 20 and 40 nM) of the antibodies and running buffer were injected at a flow rate of 30 μL/min for an association phase of 240 s, followed by 4800 s dissociation. 10 mM glycine pH 1.5 as regeneration buffer was injected following every dissociation phase. The chip was regenerated with 10 mM glycine pH 1.5. One surface channel without capturing ligand was used as control surface for reference subtraction. Final data of each interaction was deducted from reference channel and buffer channel data. […] A molecular weight of 150 kDa was used to calculate the molar concentration of the antibodies.

[3] = biological target: T2, rhMer/Fc Chimera (recombinant human …); experiment: SPR, off-rate; ligand rhMer/Fc Chimera, antibody as analyte; below the detection limit of the instrument
[4] = biological target: T2, rhMer/Fc Chimera (recombinant human …); experiment: SPR, off-rate; ligand rhMer/Fc Chimera, antibody as analyte

- EC50 [1]: 7.9 nM
- Kd [2]: 0.00299 nM
- koff [3]: < 1e-06 s⁻¹
B1: z11 antibody (antibody, human IgG1, kappa, V domains shown)
VH: QVQLVQSGAEVKKPGASVKVSCKASGYTFTNYGMNWVRQAPGQGLEWMGWINTYTGEPTYADDFKGRVTMTLDTSTSTAYMELRSLRSDDMAVYYCARKSTVVSRYFDVWGQGTTVTVSS
VL: DIQMTQSPSFLSASVGDRVTITCKASQDVGDAVTWYQQKPGKAPKLLIYWASTRHTGVPDRFSGSGSGTDFTLTISSLQPEDFATYYCQQYRSYPLTFGQGTKLEIKR

- EC50 [1]: 7.6 nM
- Kd [2]: 0.00368 nM
- koff [3]: < 1e-06 s⁻¹
B2: z13 antibody (antibody, human IgG1, kappa, V domains shown)
VH: B1 VH with M70F
VL: B1 VL

- koff [4]: 7e-06 s⁻¹
B3: W3725-xAb-IgG1K/(S34+S35) (antibody, V domains shown)
VH: QIQLVQSGPELKKPGETVKISCKASGYTFTNYGMNWVKQAPGKGLKWMGWINTYTGEPTYADDFKGRFVFSLETSASTAYLQINNLKNEDMATYFCARKSTVVSRYFDVWGAGTTVTVSS
VL: DIVLTQSHKFMSTSVGDRVSITCKASQDVGDAVTWCQQKPGQPPKLLIYWASTRHTGVPDRFTGSGSGTDFTLTINNVQSEDLADYFCQQYRSYPLTFGAGTKLELKR
notes: also called chimeric anti-MERTK antibody
